Laboratory results as given in article PMC3070544 (Structure (London, England : 1993), 2011).

Biological target: the molecule itself
Experiment: AUC

B1: mouse E-cadherin EC1-5 ectodomain, wild type (domain or fragment)
chain: DWVIPPISCPENEKGEFPKNLVQIKSNRDKETKVFYSITGQGADKPPVGVFIIERETGWLKVTQPLDREAIAKYILYSHAVSSNGEAVEDPMEIVITVTDQNDNRPEFTQEVFEGSVAEGAVPGTSVMKVSATDADDDVNTYNAAIAYTIVSQDPELPHKNMFTVNRDTGVISVLTSGLDRESYPTYTLVVQAADLQGEGLSTTAKAVITVKDINDNAPVFNPSTYQGQVPENEVNARIATLKVTDDDAPNTPAWKAVYTVVNDPDQQFVVVTDPTTNDGILKTAKGLDFEAKQQYILHVRVENEEPFEGSLVPSTATVTVDVVDVNEAPIFMPAERRVEVPEDFGVGQEITSYTAREPDTFMDQKITYRIWRDTANWLEINPETGAIFTRAEMDREDAEHVKNSTYVALIIATDDGSPIATGTGTLLLVLLDVNDNAPIPEPRNMQFCQRNPQPHIITILDPDLPPNTSPFTAELTHGASVNWTIEYNDAAQESLILQPRKDLEIGEYKIHLKLADNQNKDQVTTLDVHVCDCEGTVNNCMKA
modifications: O-linked glycosylation observed in the structure
Kd: ~100 µM
